Drawing on CN110954697A, this text covers 阳性率 (percent positive cells) and 阳性细胞的比例 (percent positive cells) for two substances.

The target in assay [1] is 抗PD-1单链抗体与IgG4Fc片段融合蛋白 (anti-PD-1 scFv-IgG4 Fc fusion secreted by Meso3CAR-T-antiPD1 cells). Put plainly: flow cytometry on Meso3CAR-T-antiPD1 cells; 2 μL PE-labelled anti-IgG4 Fc antibody, read directly (these cells also carry Meso3CAR with an IgG4 CH2CH3 hinge).
For assay [2] the target is unchanged. Put plainly: flow cytometry on Meso3CAR-T-antiPD1 cells; 2 μL of 1 mg/mL biotin-labelled reagent, streptavidin-PE. Background: In flow cytometry, cells or beads pass a laser one at a time.

Chain of 抗PD-1单链抗体与IgG4Fc片段融合蛋白 (anti-PD-1 scFv-IgG4 Fc fusion secreted by Meso3CAR-T-antiPD1 cells) (chain, as listed by the source): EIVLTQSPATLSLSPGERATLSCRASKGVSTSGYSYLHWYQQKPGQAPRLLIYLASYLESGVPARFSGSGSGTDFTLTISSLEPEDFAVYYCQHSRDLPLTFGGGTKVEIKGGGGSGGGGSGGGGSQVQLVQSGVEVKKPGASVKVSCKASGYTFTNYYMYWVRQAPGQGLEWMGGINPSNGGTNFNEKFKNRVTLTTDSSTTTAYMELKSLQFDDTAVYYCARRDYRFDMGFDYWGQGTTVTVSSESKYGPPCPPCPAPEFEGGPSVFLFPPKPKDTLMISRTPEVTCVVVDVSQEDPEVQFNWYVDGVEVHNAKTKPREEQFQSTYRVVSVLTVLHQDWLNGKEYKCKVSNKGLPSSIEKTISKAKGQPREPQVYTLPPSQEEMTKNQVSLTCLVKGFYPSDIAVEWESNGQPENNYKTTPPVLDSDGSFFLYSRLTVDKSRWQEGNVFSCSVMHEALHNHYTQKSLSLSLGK

“PE标记的抗IgG4Fc抗体 (PE-labelled anti-IgG4 Fc antibody), Abcam, 货号 ab99825”: the 阳性率 (percent positive cells) in assay [1] worked out at 39.9%.

Consider “抗PD-1抗体的抗体 (antibody against the anti-PD-1 antibody), 金斯瑞 GenScript, 货号 A01853-40, biotin-labelled”, for which, in assay [2], the 阳性细胞的比例 (percent positive cells) came out at 31.6%.
